In article PMC10504565:

Target: endogenous POLR2A/RPB1, the largest subunit of RNA pol II, of HepG2 cells (human (endogenous in HepG2)) (UniProt P24928)
Assay: proximity ligation; fixed HepG2 cells (SHP-1 WT; SHP-1 KO as negative control), anti-SHP-1 and anti-RPB1 antibodies, Duolink In Situ kit; nuclear dots counted in at least 400 nuclei

Chain of endogenous SHP-1 of HepG2 cells, P29350 1-595 (natural protein; other documents disagree on this pair) (P29350 whole entry): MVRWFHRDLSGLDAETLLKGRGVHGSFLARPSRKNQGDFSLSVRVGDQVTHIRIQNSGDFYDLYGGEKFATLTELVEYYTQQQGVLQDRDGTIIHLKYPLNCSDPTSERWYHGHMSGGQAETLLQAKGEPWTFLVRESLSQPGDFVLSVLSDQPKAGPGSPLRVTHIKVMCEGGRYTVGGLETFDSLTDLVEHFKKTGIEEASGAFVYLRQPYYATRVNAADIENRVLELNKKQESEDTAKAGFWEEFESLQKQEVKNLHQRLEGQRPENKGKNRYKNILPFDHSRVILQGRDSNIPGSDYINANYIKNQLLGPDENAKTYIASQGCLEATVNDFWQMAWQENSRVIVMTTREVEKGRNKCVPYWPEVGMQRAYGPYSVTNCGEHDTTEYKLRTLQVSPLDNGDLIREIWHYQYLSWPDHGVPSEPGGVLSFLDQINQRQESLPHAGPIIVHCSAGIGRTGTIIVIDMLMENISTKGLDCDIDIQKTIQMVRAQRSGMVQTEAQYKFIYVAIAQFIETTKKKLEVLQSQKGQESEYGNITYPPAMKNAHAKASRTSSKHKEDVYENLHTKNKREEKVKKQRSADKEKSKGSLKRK

endogenous SHP-1 of HepG2 cells, P29350 1-595 (natural protein; other documents disagree on this pair)
percent of nuclei with PLA dots: 44 % of nuclei
